Measurements: the nanobody polyreactivity screen of Harvey et al. (2022)

experiment: yeast display, Sf9 membrane polyspecificity reagent, FACS + sequencing; frameworks hold sequencing errors
Outline: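 Nanobodies from a synthetic yeast display library (Saccharomyces cerevisiae BJ5465), induced 36–48 hours with galactose, were stained 1 hour at 4 °C with 10% biotinylated, detergent-solubilized Sf9 membrane reagent, enriched on streptavidin microbeads, then FACS-sorted. Anti-HA (expression) and streptavidin (reagent binding) fluorescence set low and high (top ~1%) gates. Polyreactivity labels come from the gate of origin. Genes were colony-PCR amplified, MiSeq 2 × 250 sequenced and filtered by CDR length.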

| Sequence | polyreactivity (PSR sort gate) |
| --- | --- |
| QVQLVESGGGLVQAGGSLRLSCAASGRTFGGNAMGWYRQAPGKERELVAAITGRGGSTYYADSVKGRFTISRDNAKNTVYLQMNSLKAEDTAVYYCAKQFKRGYGYDYWGQCTQVTVSS | low polyreactivity |
| QVQLVESGGGLVQAGGGLRLSCAASGRIFSRNVMGWYRQAPGKERELVAAISASGGSTYYADSVKGRFTISRDNAKNTVYLQMNSLKPEDTAVYYCAARRYPGRTATYYSWGQGTQVTVSS | high polyreactivity |
| QVQIVESGGGLVQAGGSLPLSCADYGLIFPDYAMGCYRQAPGKEREFVASIWRGGTTYYADSVKGRFTISRDNAKNTFYFKINSLKPEDTAVYYCASRYFHRGLVFPFTKYDYWGLGTQVTVSS | high polyreactivity |
| QVQLVESGGGLVQAGGSLRLSCAASGLTFYSYAMGWYRQAPGKERELVAAITISGGSTYADSVKGRFTISRDNAKNTVYLQMNSLKPEDTAVYYCAVDDFRNPDYDSWGQGTQVTVSS | low polyreactivity |
| QVQLVESGGGLVQARGSLRLSWAASGSTFQVYAMGWSRPAPGKERELVAAINYSGGSTYYADSVKGRFTISRDNAKNTVYVLMNSLKPEDTAVYYCAVKLRSRAGTSYGYWGQGTQVTVSS | high polyreactivity |
| QVQLVESGGGLVEAGGSLRLSCAASASISGRYAMGSYRQAPGKERELVAAISWIGGSTYYADSVKGRFTISRDNAKNTVYLQMNSLKPEDTAVYYCNVTIDTRTHPLLVVFYGYDYWGQGTQVTVSS | low polyreactivity |
| QVHLVESGGGLVQAGGSLRLSCAATGSTFSNYAMGWNRQAPGKERELVASISNGGSTNYADSVKGRFTISRDNANNTVYLQMNSLKPVDTEVYFCIAESKAKYDYWGQGTQVSVSS | low polyreactivity |
| QVQLVESGGGLVQAGGSLRLSCAASGSTFRRNTMGWYREAPGKEREFVAALSRRGGSTYYADSVKGRFTISRDNAKNTVYFQMNRLKPEDTGVYYCAAPGLSRLYNVYYWPYDYWGQGTQVTVSS | high polyreactivity |
| QVQLVESGGGLVQAGGSLRLSCAASGLSFSGNVMGWYRQAPGKERELVAAIDRSGGSTYYADSVKGRFTISRDNAQKTVYLQMNSLKPEDTAVYYCAVSSYPNHSRSWDDYWGQGTQVTVSS | low polyreactivity |
| QVQLVESGGGLVQAGGSLRLSCAASGITFQDYAMGWYRQAPGKERELVAAISKSGGSTYYADSVKGRFTISRDNAKNTVYLQMNSLKPEDTAVYYCAAYAQKRYYWGQGTQVTVSS | high polyreactivity |
| QVHLVESGGGLVQAGGSLRLSCAASGITFNIYTLGWYRQAPGKEREFVATISSSGGGTYYADSVKGRFTISRDNSKNTVYFQMNSLKPEDTAVYYCARYGIGADGYDYWGQGTQVTVSS | low polyreactivity |
| QVQLVESGGGLVQAGGSLRLSCAASGSTFKYYAMGWYRPAPGKERELVAAISGRGGRTYYADSVKGRFTISRDNAKNTVYLQMNSLKPEDTAVYYCNAPFLGAHHYGYEYWGQRTQVTVSS | high polyreactivity |
| QVQLVESGAGLVQAGGSLRLSCAASGIIFDWYTMGWYRQAPGKERELVAAISWRGGRTYYADSVKGRFTISRDNAKNTVYLQMNSLKPEDTAVYYCAAEAPVQPFYVFNTGIYELDYWGQGTQVTVSS | low polyreactivity |
| QVQLVESGGGLVQAGGSLRLSCAASGLIFAGYSMGWYRLAPGKERELVAAITWRGGRTYADSVKGRFTISRDNAKNTVYLQMNSLKPEDTAVYYCAVRRWGTSFVEDDYWGQGTQVTVSS | low polyreactivity |
| QVQLVETGGGLVHAGGSLRLSSAASGRTFVENDMGWYRQAPGKERELVAAITYRGGRTFYADSVKGSFTISRDNAKNTVYLQMNSRKPEDTAVYSCNAVRRTGGHGVYWGQGTQVTVSS | high polyreactivity |
| QVQLVESGGGLVQAGGSLRLSCAASGRIFRYYAMGWYSQAPGQDRELVAAISWSGGSTYYADSVKGRFTISRDKAKNTVYLQMHSLKPEDTAVYYCNKVPLGLEGDYWGQGTQVTVSS | high polyreactivity |
| QVQLVESGGGLVQPGGSLRLTCAAYGFIFGYNSMGWYSQAPGKERELVAAISSGGSTYYADSVNGLFTISRDNAKNTVYLQMNSVKPDDTAVYYCAVELGYPIQSDALWWDFEYWGQGTQVTVSS | low polyreactivity |
